What was measured:
[1] = molecular target: recombinant human CD73 protein with C-terminal 6xHis tag (human) (UniProt P21589); assay: cell-based or functional assay
[2] = molecular target: T1, CD73 on A549 cells (UniProt P21589 27-549, limits assumed); assay: cell-based or functional assay
T1 sequence (looked up): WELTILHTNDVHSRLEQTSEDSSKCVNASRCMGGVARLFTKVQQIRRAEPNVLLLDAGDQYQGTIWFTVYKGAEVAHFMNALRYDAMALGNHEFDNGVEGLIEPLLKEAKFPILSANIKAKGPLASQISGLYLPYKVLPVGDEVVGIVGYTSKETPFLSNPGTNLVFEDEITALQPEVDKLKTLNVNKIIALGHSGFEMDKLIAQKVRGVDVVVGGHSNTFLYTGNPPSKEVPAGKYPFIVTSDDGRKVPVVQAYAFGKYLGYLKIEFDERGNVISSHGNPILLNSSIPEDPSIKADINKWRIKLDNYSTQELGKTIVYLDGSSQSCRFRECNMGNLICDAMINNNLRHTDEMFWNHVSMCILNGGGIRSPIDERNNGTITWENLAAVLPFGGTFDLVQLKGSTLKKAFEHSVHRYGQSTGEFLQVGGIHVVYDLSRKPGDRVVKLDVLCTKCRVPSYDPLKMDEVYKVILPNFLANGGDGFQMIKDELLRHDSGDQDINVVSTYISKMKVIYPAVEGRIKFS

[3] = molecular target: recombinant human CD73 protein with C-terminal 6xHis tag (human) (UniProt P21589); assay: SPR, Biacore T200, antibody captured on CM5 chip, human CD73 injected, 25 C, 1:1 fit
[4] = molecular target: T2, recombinant human CD73 protein with C-terminal 6xHis tag (human, UniProt P21589 27-547, limits assumed); assay: cell-based or functional assay
T2 sequence: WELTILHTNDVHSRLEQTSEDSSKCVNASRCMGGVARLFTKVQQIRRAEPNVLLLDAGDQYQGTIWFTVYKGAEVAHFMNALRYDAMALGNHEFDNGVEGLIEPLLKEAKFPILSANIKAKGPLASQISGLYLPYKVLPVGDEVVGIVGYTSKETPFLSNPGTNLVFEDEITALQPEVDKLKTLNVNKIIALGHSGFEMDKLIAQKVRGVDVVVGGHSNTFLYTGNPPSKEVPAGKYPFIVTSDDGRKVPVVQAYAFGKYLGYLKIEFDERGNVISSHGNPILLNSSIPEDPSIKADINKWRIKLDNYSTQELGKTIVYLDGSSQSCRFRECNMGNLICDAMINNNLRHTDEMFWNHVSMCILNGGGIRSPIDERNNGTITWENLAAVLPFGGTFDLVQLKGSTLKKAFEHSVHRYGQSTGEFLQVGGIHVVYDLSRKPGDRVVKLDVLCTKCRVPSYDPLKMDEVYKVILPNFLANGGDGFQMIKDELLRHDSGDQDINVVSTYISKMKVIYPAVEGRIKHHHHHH

[5] = molecular target: T2, recombinant human CD73 protein with …; assay: SPR, Biacore T200, antibody captured by anti-mouse Fc IgG on CM5 chip, human CD73 injected, 25 C, 1:1 fit
Protocol: Mouse Antibody Capture Kit, which is a commercialized reagent kit, was purchased from GE. Anti-mouse Fc IgG was fixated on a CM5 sensor chip by amine coupling in order to capture the antibody under test with the coupled anti-mouse Fc IgG. A series of human CD73 proteins having a predetermined concentration gradient were then injected, before samples were taken and tested with the pH 1.7 glycine-HCl regeneration testing chip that came with the reagent kit.
The binding constant (Ka), the dissociation rate constant (Kd), and the equilibrium constant (KD) were calculated with the Biacore T200 evaluation software by combining the model fitting data at a 1:1 ratio.

| Molecule | EC50 (µg/mL), Biochemical level, inhibition of CD73 enzyme activity [1] | EC50 (µg/mL), Cell level (A549), inhibition of CD73 enzyme activity [2] | Kd [3] | koff [3] | kon [3] | EC50 (µg/mL), Biochemical level, inhibition of CD73 enzyme activity [4] | Kd [5] | koff [5] | kon [5] |
| --- | --- | --- | --- | --- | --- | --- | --- | --- | --- |
| MEDI-9447, anti-CD73 monoclonal antibody of MedImmune LLC | 0.0896 µg/mL | 0.032 µg/mL | 0.141 nM | 3.91e-05 s⁻¹ | 278000 M⁻¹ s⁻¹ |  |  |  |  |
| anti-human CD73 monoclonal antibody 7-C10-Ba-C2 (antibody, V domains shown, Mouse (BABL/c) hybridoma antibody purified from ascitic fluid; also called antibody of the present invention) VH: EVQLQQSGPELVKPGASMKISCKASGYSFTGYTMNWVKQSHGKNLEWIGFITPYNGDTIYNQKFKGKATVTVDKSSSTAYMDLLSLTSEDSAVYYCAREGYDGGYFDYWGQGTTLTVSS VL: DIQMTQSPASLSASVGETVTITCRASENIYSYLAWYQQKQGKSPQLLVYNTQTLAEGVPSRFSGSGSGTQFSLKINSLQPEDFGSYYCQHHYGTPMYPFGGGTKLEIK |  | 0.0854 µg/mL |  |  |  | 0.106 µg/mL | 0.416 nM | 3.21e-05 s⁻¹ | 77200 M⁻¹ s⁻¹ |

From patent US20240368299A1 (JIANGSU KANION PHARMACEUTICAL, published 2024)
